According to patent publication US20140302035A1:

B1: OA-5D5 (antibody, part only; not given: constant regions and Fc knob chain, V domains shown, not shown: another chain or arm of the molecule; a dimerising Fc or GST)
VH: EVQLVESGGGLVQPGGSLRLSCAASGYTFTSYWLHWVRQAPGKGLEWVGMIDPSNSDTRFNPNFKDRFTISADTSKNTAYLQMNSLRAEDTAVYYCATYRSYVTPLDYWGQGTLVTVSS
VL: DIQMTQSPSSLSASVGDRVTITCKSSQSLLYTSSQKNYLAWYQQKPGKAPKLLIYWASTRESGVPSRFSGSGSGTDFTLTISSLQPEDFATYYCQQYYAYPWTFGQGTKVEIK
B2: Ab#5 (bispecific antibody, human IgG1, kappa)
heavy: QLQLQESGPGLVKPSETLSLTCTVSGGSISSSVYYWSWIRQPPGKGLEWIGVIYPSGNTYYSPSLKSRVTISVDTSKNQFSLKLSSVTAADTAVYYCARTIYDLFDIWGQGTMVTVSSASTKGPSVFPLAPSSKSTSGGTAALGCLVKDYFPEPVTVSWNSGALTSGVHTFPAVLQSSGLYSLSSVVTVPSSSLGTQTYICNVNHKPSNTKVDKKVEPKSCDKTHTCPSCPAPEFLGGPSVFLFPPKPKDTLMISRTPEVTCVVVDVSQEDPEVQFNWYVDGVEVHNAKTKPREEQFNSKYRVVSVLTVLHQDWLNGKEYKCKVSNKGLPSSIEKTISKAKGQPREPQVYTLPPSREEMTKNQVSLSCAVKGFYPSDIAVEWESNGQPENNYKTTPPVLDSDGSFFLVSKLTVDKSRWQQGNVFSCSVMHEALHNHYTQKSLSLSKSCDKTGGGGSGGGGSGGGGSGGGGSGGGGSGGGGSGGGGSGGGGSCPSCPAPEFLGGPSVFLFPPKPKDTLMISRTPEVTCVVVDVSQEDPEVQFNWYVDGVEVHNAKTKPREEQFNSDYRVVSVLTVLHQDWLNGKEYKCKVSNKGLPSSIEKTISKAKGQPREPQVYTLPPSREEMTKNQVSLWCLVKGFYPSDIAVEWESNGQPENNYKTTPPVLDSDGSFFLYSKLTVDKSRWQQGNVFSCSVMHEALHNHYTQKSLSLSGECGGGGSGGGGSDIVMTQSPLSLPVTPGEPASISCRSTKSLLHSNGITYLYWYLQKPGQSPQLLIYQMSNLASGVPDRFSSSGSGTDFTLKISRVEAEDEGVYYCAQNLEIPRTFGGGTKLEIKRTGGGGSGGGGSGGGGSGGGGSQVQLVQSGAEVKKPGESVKISCKASGYTFTNYGMNWVRQAPGQGLKWMGWINTYTGESTYADDFKGRFAFSLDTSASTAYLQLSSLRSEDTAVYFCARFAIKGDYWGQGTLVTVSS
light: DIQMTQSPSSVSASVGDRVTITCRASQGISSWLAWYQQKPGKAPKLLIYAASSLQSGVPSRFSGSGSGTDFTLTISSLQPEDFATYYCLQANSFPPTFGGGTKVEIKRTVAAPSVFIFPPSDEQLKSGTASVVCLLNNFYPREAKVQWKVDNALQSGNSQESVTEQDSKDSTYSLSSTLTLSKADYEKHKVYACEVTHQGLSSPVTKSFNRGEC

Key:
c-Met (human) = c-Met (human) (UniProt P08581); assay: cell-based or functional assay
Sequence of c-Met (human) (P08581 25-1390): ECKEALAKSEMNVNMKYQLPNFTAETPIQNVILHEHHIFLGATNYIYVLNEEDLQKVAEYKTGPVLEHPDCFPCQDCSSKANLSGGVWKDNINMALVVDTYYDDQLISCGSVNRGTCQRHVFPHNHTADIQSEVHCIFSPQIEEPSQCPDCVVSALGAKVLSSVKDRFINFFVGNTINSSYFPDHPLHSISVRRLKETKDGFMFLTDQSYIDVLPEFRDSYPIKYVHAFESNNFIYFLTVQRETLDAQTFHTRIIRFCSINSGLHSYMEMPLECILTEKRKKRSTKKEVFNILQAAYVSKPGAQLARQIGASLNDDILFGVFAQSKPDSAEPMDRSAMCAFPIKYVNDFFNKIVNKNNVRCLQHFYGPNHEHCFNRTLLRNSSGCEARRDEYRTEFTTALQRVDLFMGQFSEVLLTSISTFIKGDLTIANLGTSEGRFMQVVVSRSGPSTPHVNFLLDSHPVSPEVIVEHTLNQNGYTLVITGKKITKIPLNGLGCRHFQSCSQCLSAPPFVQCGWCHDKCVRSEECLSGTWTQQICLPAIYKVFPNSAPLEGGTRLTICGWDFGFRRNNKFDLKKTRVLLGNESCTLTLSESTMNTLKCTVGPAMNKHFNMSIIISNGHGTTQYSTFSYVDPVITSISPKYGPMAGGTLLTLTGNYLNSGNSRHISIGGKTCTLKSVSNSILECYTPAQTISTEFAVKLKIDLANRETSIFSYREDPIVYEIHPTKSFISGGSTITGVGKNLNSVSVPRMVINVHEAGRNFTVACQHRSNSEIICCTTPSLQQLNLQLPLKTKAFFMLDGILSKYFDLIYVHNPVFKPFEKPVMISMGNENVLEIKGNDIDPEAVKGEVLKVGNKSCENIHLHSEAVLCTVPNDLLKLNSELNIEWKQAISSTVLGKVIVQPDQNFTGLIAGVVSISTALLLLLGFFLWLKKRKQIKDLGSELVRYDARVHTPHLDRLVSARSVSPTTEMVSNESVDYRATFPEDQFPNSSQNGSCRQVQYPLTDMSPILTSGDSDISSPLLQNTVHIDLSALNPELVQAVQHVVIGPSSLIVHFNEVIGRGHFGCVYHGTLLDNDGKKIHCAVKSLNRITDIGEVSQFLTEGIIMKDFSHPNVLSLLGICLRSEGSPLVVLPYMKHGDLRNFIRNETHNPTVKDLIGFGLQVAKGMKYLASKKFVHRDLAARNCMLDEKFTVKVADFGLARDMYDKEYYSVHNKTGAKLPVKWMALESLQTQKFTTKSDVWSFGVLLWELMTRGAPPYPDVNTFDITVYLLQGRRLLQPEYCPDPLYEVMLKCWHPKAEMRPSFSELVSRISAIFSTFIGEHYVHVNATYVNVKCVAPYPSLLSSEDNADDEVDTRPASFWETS

c-Met (human), P08581 = assay: cell-based or functional assay
Sequence of c-Met (human), P08581 (P08581 25-1390): as above

| Binder | c-Met degradation (total c-Met ELISA, 24 h), A549 cells (c-Met (human)) | reduction of c-Met expression (total c-Met ELISA, 24 h), NCI-H2170 cells (c-Met (human)) | c-Met degradation (total c-Met ELISA, 24 h), A549 cells (c-Met (human), P08581) | reduction of c-Met expression (total c-Met ELISA, 24 h), NCI-H2170 cells (c-Met (human), P08581) |
| --- | --- | --- | --- | --- |
| B1 | < 20% | 30% | – | – |
| B2 | – | – | < 20% | 65% |
